From FireProtDB (doi:10.1111/j.1432-1033.1994.tb18664.x) come the findings set out here.

For the data set the following is noted: Escherichia coli (strain K12), Thermal, CD, NaCl 0.1 M, reversible: yes, whole UniProt chain shown.

B1: Ribonuclease HI wild type, P0A7Y4 (protein)
chain: MLKQVEIFTDGSCLGNPGPGGYGAILRYRGREKTFSAGYTRTTNNRMELMAAIVALEALKEHCEVILSTDSQYVRQGITQWIHNWKKRGWKTADKKPVKNVDLWQRLDAALGQHQIKWEWVKGHAGHPENERCDELARAAAMNPTLEDTGYQVEV
B1: under “pH 3, glycine-HCl 10 mM”, the Tm turned out to be 50 °C and the “unfolding enthalpy (van 't Hoff)” value was found to be 107 kcal/mol. For the setting “pH 5.5, Sodium acetate 20 mM”, the Tm is 53.1 °C and the “unfolding enthalpy (van 't Hoff)” value worked out at 83.3 kcal/mol.
